Molecular target: 4G10 anti-phosphotyrosine monoclonal antibody (Upstate Biotechnology)
Experiment: fluorescence polarization competition; competitor of the fluorescent pp60c-src phosphopeptide

Substance: unphosphorylated peptide (same sequence as the pp60c-src C-terminal phosphoregulatory peptide) (from UniProt P12931 524-536)
- total shift in polarization: < 10 mP

Source: US20070026475A1
